The values that follow come from publication PMC5727130.

Assay [1] deals with His6-NT*-thrombin cleavage site-Bri2 BRICHOS fusion protein (human) (UniProt Q9Y287). Description: SEC; Ni-NTA-purified NT*-Bri2 BRICHOS fusion protein resolved on Superdex columns (Supplementary Fig. 1). On the technique in general: In gel filtration, larger molecules generally elute earlier.
The target in assay [2] is human Bri2 BRICHOS (residues 113–231) tagged C-terminally with AU1, secreted from HEK293 cells (human) (UniProt Q9Y287). Description: Western blot after non-reducing SDS-PAGE; lysates of HEK293 cells transfected with Bri2 BRICHOS-AU1, anti-AU1 blot (Supplementary Fig. 9a). On the technique in general: Immunoblotting shows a protein as a band on a membrane.
Assay [3] has the same target. Description: immunoprecipitation and Western blot after non-reducing SDS-PAGE; culture medium of HEK293 cells transfected with Bri2 BRICHOS; reducing against non-reducing conditions.
The target in assay [4] is recombinant human Bri2 BRICHOS domain (residues 113–231 of full-length human Bri2) (human) (UniProt Q9Y287). As to the kind of experiment: Western blot after non-reducing SDS-PAGE; rh Bri2 BRICHOS monomer (5 µM) incubated at 37 °C in 80% (v/v) mouse serum, samples at different time points, goat anti-Bri2 BRICHOS blot.
The target is the same in assay [5]. As to the kind of experiment: SEC; rh Bri2 BRICHOS cleaved from isolated fusion-protein monomers; Superdex 200 PG.
Assay [6] has the same target. As to the kind of experiment: SEC; rh Bri2 BRICHOS cleaved from isolated fusion-protein dimers; Superdex 200 PG.
For assay [7] the target is unchanged. Description: SDS-PAGE under non-reducing and reducing conditions; monomeric rh Bri2 BRICHOS (26.8 µM) incubated at 37 °C overnight in 20 mM phosphate pH 8.0, 0.2 mM EDTA, 0.02% NaN3.
For assay [8] the target is unchanged. Description: negative-stain TEM single-particle 3D reconstruction; oligomers isolated on Superose 6 GL in 20 mM ammonium acetate pH 8.0, 2% uranyl acetate stain, D2 symmetry applied; number of subunits from the volume of the map against that of a monomer model.

Values joined by “and” are separate entries in the source; they are usually repeats but may differ in a detail not shown here. Equal values may be shown once.

Regarding “His6-NT*-thrombin cleavage site-Bri2 BRICHOS fusion protein (from UniProt Q9Y287 113-231) (domain or fragment)”, the stoichiometry N (in general, the number of molecules, sites or subunits per partner or assembly) in assay [1] was found to be 2.
Take “human Bri2 BRICHOS (residues 113–231) tagged C-terminally with AU1, secreted from HEK293 cells (from UniProt Q9Y287 113-231) (domain or fragment)”: the stoichiometry N in assay [2] is 2 and 4; in assay [3], 2 and 4.
With “recombinant human Bri2 BRICHOS domain (residues 113–231 of full-length human Bri2) (from UniProt Q9Y287 113-231) (domain or fragment)”, the stoichiometry N in assay [4] is 2 and 4 and 6; in assay [5], 2; in assay [6] it was 2 and 4; in assay [7] it was 2; in assay [8], 24.
